Data reported in EP3848397A1 (NANJING UMAB-BIOPHARMA CO., LTD., dated 2021).
Where two headings read alike, the source gives them in different places.

Tests used:
Assay in all cases: cell-based or functional assay
[1] = target: T1, OX40 on Jurkat-OX40-NFκB-luciferase reporter cells (UniProt P43489 29-277)
T1 sequence (looked up): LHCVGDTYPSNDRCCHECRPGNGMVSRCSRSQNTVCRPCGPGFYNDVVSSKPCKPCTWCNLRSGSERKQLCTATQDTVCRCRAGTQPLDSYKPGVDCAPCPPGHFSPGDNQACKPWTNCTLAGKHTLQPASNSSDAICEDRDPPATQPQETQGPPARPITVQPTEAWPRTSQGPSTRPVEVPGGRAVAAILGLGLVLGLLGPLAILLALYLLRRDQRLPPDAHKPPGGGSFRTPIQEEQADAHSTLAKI

[2] = target: T1, OX40 on Jurkat-OX40-NFκB-luciferase …; remark: listed apart in the source
[3] = target: T1, OX40 on Jurkat-OX40-NFκB-luciferase …; remark: listed apart in the source

EC50 of NFκB-luciferase reporter activation (FcR-mediated) [1]: 0.0452 ng/mL
Activation activity of OX40 signaling pathway, EC50 [2]: 0.178 nM
Activation activity of OX40 signaling pathway, EC50 [3]: 0.325 nM
B1: MT01-C1 (antibody, human IgG1, V domains shown)
VH: EVQLVQSGAEVKKPGESLKISCKASGYTFTSYVMHWLRQMPGKGLEWMGYINPYNDGTKYNEKFKGQVTISSDKSISTAYLQWSSLKASDTAMYYCANYYGSKFAMDYWGQGTMVTVSS
VL: DIQMTQSPSSVSASVGDRVTITCRASQDISNYLSWYQQKPGGAVKLLIYYTSRLHSGVPSRFSGSGSGTDYTLTISSLQPEDFATYFCQQGITLPWTFGQGTKVEIK
